Reference: patent US20210024646A1 (published 2021)
Positions count from the first letter of the chain named. Values joined by “and” are separate entries in the source; they are usually repeats but may differ in a detail not shown here. Equal values may be shown once. Read-outs that look alike come from different tables or passages of the source. Each block holds one binder with its values, some of them ahead of it.

How the values were obtained:
[1] = molecular target: T1, CD73 on the surface of human tumor cells (human, UniProt P21589 27-549); assay: FACS; MDA-MB-231 cells
T1 chain: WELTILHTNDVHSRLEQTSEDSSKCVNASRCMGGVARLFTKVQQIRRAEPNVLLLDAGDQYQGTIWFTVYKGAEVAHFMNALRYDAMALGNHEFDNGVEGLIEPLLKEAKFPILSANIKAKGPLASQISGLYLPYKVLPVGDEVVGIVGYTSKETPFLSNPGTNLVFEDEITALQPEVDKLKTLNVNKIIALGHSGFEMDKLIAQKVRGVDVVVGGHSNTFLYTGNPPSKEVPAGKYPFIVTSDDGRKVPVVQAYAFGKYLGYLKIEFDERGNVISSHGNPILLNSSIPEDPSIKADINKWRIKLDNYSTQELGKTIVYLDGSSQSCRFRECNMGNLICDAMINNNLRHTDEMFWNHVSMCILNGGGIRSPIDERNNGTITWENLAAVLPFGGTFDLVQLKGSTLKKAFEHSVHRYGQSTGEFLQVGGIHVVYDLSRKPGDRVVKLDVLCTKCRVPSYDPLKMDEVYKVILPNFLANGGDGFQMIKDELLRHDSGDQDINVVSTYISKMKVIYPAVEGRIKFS

[2] = molecular target: T2, extracellular domain of human CD73 protein (CD73-ECD), C-terminus polyhistidine-tagged (UniProt P21589 27-547); assay: enzyme inhibition; left table
T2 chain: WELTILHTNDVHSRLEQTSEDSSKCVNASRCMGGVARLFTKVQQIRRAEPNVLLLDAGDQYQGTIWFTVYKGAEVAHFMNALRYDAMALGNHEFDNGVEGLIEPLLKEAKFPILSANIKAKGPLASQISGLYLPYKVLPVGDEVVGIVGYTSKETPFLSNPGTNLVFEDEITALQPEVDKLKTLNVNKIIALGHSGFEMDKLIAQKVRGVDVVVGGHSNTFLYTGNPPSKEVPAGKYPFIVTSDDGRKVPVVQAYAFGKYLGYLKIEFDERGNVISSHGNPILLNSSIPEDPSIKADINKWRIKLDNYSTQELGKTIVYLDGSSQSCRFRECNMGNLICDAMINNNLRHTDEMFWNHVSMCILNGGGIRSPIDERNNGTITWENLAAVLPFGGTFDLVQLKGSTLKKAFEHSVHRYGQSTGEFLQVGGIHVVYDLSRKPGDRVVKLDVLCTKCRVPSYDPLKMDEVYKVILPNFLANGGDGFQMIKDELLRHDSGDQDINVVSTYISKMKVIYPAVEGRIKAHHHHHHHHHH

[3] = molecular target: T3, Carbon-terminal polyhistidine-labeled recombinant cynomolgus monkey CD73 enzyme (cynomolgus monkey, UniProt A0A2K5V5U7 1-547); assay: enzyme inhibition; left table
T3 chain: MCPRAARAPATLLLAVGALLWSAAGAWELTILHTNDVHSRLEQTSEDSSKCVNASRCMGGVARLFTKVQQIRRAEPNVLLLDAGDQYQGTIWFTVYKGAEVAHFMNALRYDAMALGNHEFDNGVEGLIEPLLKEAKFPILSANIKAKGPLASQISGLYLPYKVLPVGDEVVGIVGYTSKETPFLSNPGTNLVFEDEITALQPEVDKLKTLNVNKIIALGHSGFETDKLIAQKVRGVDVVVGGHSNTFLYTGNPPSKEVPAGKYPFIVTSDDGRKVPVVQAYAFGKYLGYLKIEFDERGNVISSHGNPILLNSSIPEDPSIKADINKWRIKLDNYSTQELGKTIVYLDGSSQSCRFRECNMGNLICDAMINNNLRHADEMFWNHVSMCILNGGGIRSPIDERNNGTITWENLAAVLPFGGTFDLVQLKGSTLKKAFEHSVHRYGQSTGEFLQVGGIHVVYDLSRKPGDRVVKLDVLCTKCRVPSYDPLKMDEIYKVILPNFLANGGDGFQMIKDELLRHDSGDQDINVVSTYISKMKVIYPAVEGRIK

[4] = molecular target: T2, extracellular domain of human CD73 …; assay: enzyme inhibition; right table
[5] = molecular target: T3, Carbon-terminal polyhistidine-labeled …; assay: enzyme inhibition; right table
[6] = molecular target: T1, CD73 on the surface of human tumor cells; assay: FACS; NCI-H1299 cells, left table
[7] = molecular target: T1, CD73 on the surface of human tumor cells; assay: FACS; MDA-MB-231 cells, left table
[8] = molecular target: T1, CD73 on the surface of human tumor cells; assay: FACS; MDA-MB-231 cells, right table
[9] = molecular target: T2, extracellular domain of human CD73 …; assay: ELISA
[10] = molecular target: T2, extracellular domain of human CD73 …; assay: ELISA
[11] = molecular target: T1, CD73 on the surface of human tumor cells; assay: FACS; NCI-H1299 cells, right table
[12] = molecular target: T1, CD73 on the surface of human tumor cells; assay: FACS; NCI-H1299 cells, left table
[13] = molecular target: T1, CD73 on the surface of human tumor cells; assay: FACS; NCI-H1299 cells, right table
[14] = molecular target: T1, CD73 on the surface of human tumor cells; assay: FACS; MDA-MB-231 cells, left table
[15] = molecular target: T1, CD73 on the surface of human tumor cells; assay: FACS; MDA-MB-231 cells, right table
[16] = molecular target: T1, CD73 on the surface of human tumor cells; assay: inhibition of cell-surface CD73 enzyme activity; left panel
[17] = molecular target: T1, CD73 on the surface of human tumor cells; assay: inhibition of cell-surface CD73 enzyme activity; right panel

- EC50 [10]: 0.051 nM
B4: mAb002c-VH-NA (antibody, V domains shown)
VH: QVQLQQPGAELVKPGASVRLSCKASGYTLTSYWMHWVKKRPGQGLEWIGEINPSNARSNYNEKFKSKATLTVDRSSSTVYMQLGSLTSEDSAVYYCARRGVSGNYFDYWGQGTTLTVSS
VL: DIKMTQSPSSMYASLGERVTMTCKASQDINTYLSWFQQKPGKSPKTLIYRSNILVDGVPSRFSGSRSGQDYYLTITSLEYEDMGIYYCLQYDEFPYTFGGGTKLELK

- EC50 [10]: 0.05 nM
B5: mAb002c-VH-QG (antibody, V domains shown)
VH: B4 VH with N55Q, A56G
VL: B4 VL

- EC50 [10]: 0.063 nM
B6: mAb002c-VK-SG (antibody, V domains shown)
VH: B4 VH with A56G
VL: B4 VL with D56S

Continued, binder first:

B1: mAb001c (antibody, V domains shown)
VH: QVQLQQSGPELVKPGASVRISCKTSGYTFTNYYIYWVKQRPGQGLEWIGWIYPGNLNIKYNEKFKGKSTLTADKSSSTAFMQLSSLTSEDSAVYFCARDDNYAWFAYWGQGTLVTVSS
VL: DIVMTQSHKFMSTSIGDRVSITCKASQDVSTAVAWYQQKPGQSPKLLIYWTNTRHTGVPDRFTGNTSGTEHTLTISSVQAEDLALYYCQQHYSTPFTFGSGTTLEIK
- EC50 [1]: 1.19 nM
- IC50 [2]: 0.03 nM
- IC50 [3]: 0.04 nM
- IC50 [4]: 0.02 nM
- IC50 [5]: 0.04 nM
- EC50 [6]: 1.48 nM
- EC50 [7]: 0.45 nM
- EC50 [8]: 0.618 nM

B2: mAb001c-VK-SGS (antibody, V domains shown)
VH: B1 VH
VL: B1 VL with N65S, T66G
- EC50 [9]: 0.099 nM and 0.054 nM
- EC50 [10]: 0.073 nM
- EC50 [6]: 1.62 nM
- EC50 [11]: 1.65 nM

B3: mAb002c (antibody, V domains shown)
VH: B4 VH with A56G
VL: B4 VL
- EC50 [1]: 0.544 nM
- IC50 [2]: 0.037 nM
- IC50 [3]: 0.039 nM
- IC50 [4]: 0.038 nM
- IC50 [5]: 0.039 nM
- EC50 [12]: 0.658 nM
- EC50 [13]: 0.53 nM
- EC50 [14]: 0.466 nM
- EC50 [15]: 0.466 nM
- IC50 [16]: 0.317 nM
- IC50 [17]: 0.363 nM
